In test [1] the target is neuromedin-B preferring receptor (NMB-R), human (human) (UniProt P28336). The test can be described thus: displacement of 125I-universal ligand, human tumour sections. A general note: In a radioligand displacement assay an active substance lowers the binding of a labelled ligand.
The target in test [2] is gastrin releasing peptide receptor (GRP-R), human (human) (UniProt P30550). Described as above.

Drawing on US20090175786A1, this text covers IC50 for one substance.

neuromedin-B preferring receptor (NMB-R), human (human), sequence (P28336 whole entry): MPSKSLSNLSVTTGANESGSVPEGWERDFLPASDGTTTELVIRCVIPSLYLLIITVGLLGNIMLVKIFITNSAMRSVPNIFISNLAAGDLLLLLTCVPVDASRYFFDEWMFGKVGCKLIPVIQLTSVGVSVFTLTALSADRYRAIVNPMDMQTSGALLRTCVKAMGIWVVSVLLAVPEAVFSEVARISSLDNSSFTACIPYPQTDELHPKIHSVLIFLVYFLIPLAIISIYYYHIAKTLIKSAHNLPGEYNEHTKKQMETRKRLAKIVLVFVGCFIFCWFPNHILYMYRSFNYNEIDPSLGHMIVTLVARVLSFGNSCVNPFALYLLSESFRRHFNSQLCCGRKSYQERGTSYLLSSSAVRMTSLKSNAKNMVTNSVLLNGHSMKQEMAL
gastrin releasing peptide receptor (GRP-R), human (human), sequence (P30550 whole entry): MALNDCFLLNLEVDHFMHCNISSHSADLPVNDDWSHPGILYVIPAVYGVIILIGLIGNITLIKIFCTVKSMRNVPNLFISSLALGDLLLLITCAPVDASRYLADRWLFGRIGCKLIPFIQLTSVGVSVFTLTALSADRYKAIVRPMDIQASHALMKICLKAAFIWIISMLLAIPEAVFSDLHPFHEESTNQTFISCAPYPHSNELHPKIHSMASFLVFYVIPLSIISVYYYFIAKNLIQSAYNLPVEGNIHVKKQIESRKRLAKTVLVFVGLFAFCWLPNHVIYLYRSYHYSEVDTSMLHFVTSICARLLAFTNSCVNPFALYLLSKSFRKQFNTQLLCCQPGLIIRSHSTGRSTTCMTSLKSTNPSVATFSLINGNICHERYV

For orientation: IC50 means the concentration at which inhibition is half-maximal. Higher therefore signals weaker potency in that assay. As to “[DTyr^6, βAla^11, Phe^13, Nle^14]-BBN(6-14) (peptide)”, the IC50 in test [1] amounted to 0.8 nM; in test [2], 0.7 nM.
